Assay results: patent US20240207313A1

Columns and labels:
[1] = target: T-cell surface glycoprotein CD4 [Homo sapiens] (Homo sapiens) (UniProt P01730); test: cell-based or functional assay
[2] = target: T-cell receptor with TCR Vbeta 7.1 chain (H. sapiens rearranged TCR Vbeta 7.1) (H. sapiens); test: cell-based or functional assay
Sequence of T-cell receptor with TCR Vbeta 7.1 chain (H. sapiens rearranged TCR Vbeta 7.1) (H. sapiens) (A0A577 whole entry, form in doubt): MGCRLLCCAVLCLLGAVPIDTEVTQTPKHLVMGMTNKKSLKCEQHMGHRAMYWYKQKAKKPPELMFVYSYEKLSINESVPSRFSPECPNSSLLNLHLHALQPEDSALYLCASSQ

CD4-positive cells remaining in the culture after CAR transduction (flow cytometry) [1]: 45%
TCR Vβ7.1-positive cells remaining five days after CAR transduction (flow cytometry) [2]: 1.2%
Substance: CART20 anti-CD20 chimeric antigen receptor (scFv of monoclonal antibody Leu16 in the third-generation CAR backbone), expressed on transduced human T cells
